Measurements as given in US20020159989A1 (BETH ISRAEL DEACONESS MEDICAL CENTER, published 2002).

Target: T1, mouse TSP-1-TSR, expressed as a GAL4 DNA binding domain fusion (pAS2-1TSP1 type 1 construct) (mouse, UniProt P04386 1-147; P35441 377-549)
T1 construct: range 1-147;domain: TSR; also called TSR domain of TSP-1; bait
Test: yeast two-hybrid counter-screen (HIS3 / lacZ reporters)

T1 sequence (P04386 other isoform, or with tags, fused parts or gaps limits assumed): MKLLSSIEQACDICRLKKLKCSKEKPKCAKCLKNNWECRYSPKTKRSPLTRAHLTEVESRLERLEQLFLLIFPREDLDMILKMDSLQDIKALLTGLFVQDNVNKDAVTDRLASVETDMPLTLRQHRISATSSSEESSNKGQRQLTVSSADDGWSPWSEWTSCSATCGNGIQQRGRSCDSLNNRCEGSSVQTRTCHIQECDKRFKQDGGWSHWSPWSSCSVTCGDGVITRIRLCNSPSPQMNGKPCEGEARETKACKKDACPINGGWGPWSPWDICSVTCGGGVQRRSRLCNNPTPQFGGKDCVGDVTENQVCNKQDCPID

- binding result: no binding
B1: peptide of SEQ ID NO:1, expressed as a GAL4 activation domain fusion (prey clone from the pACT2 NIH3T3 cDNA library) (peptide)
chain: ANFNQSGNIADSSLSFTFTNSSNGPNLITTQTNSQALSQPIASSNVHDNFMNNEITASKIDDGNNSKPLSPGWTDQTAYNAFGITTGMFNTTTMDDVYNYLFDDEDTPPNPKKEAPWNCCPVSCCGNCCFFRALQSCPQG
notes: range 768-881; Yeast two-hybrid prey; also called peptide of the invention
